Measured values published in paper PMC6289755 (Journal of molecular biology, 2018).

How the values were obtained:
TRIM25 7K peptide = target: T1, TRIM25 7K peptide (human, UniProt Q14258 379-394); test: EMSA
T1 chain: PVKKVSKEEKKSKKPP

TRIM25 WT [1] = target: T2, TRIM25 WT (human, UniProt Q14258 1-630); test: EMSA
TRIM25 SPRY = TRIM25 SPRY (human, UniProt Q14258 410-630); test: EMSA
TRIM25 CCD-SPRY = TRIM25 CCD-SPRY (human, UniProt Q14258 189-630); test: EMSA
TRIM25 ΔSPRY (RBCC) = TRIM25 ΔSPRY (RBCC) (human, UniProt Q14258 1-379); test: EMSA
TRIM25 CCD+7K = TRIM25 CCD+7K (human, UniProt Q14258 189-409); test: EMSA
TRIM25 CCD = TRIM25 CCD (human, UniProt Q14258 189-379); test: EMSA
TRIM25 7KA mutant = TRIM25 7KA mutant (human, UniProt Q14258 1-630, K381A;K382A;K385A;K388A;K389A;K391A;K392A); test: SEC-MALS
TRIM25 WT [2] = target: T2, TRIM25 WT; test: SEC-MALS
SEC-MALS = target: the molecule itself; test: SEC-MALS

TRIM25 CCD+7K, sequence (Q14258 189-409): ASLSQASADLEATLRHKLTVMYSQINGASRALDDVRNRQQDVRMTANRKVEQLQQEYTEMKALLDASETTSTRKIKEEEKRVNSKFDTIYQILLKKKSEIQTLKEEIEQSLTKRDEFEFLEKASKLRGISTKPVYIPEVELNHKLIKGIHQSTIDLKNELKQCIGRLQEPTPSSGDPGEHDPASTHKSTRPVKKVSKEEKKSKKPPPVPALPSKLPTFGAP
T2 sequence (Q14258 whole entry): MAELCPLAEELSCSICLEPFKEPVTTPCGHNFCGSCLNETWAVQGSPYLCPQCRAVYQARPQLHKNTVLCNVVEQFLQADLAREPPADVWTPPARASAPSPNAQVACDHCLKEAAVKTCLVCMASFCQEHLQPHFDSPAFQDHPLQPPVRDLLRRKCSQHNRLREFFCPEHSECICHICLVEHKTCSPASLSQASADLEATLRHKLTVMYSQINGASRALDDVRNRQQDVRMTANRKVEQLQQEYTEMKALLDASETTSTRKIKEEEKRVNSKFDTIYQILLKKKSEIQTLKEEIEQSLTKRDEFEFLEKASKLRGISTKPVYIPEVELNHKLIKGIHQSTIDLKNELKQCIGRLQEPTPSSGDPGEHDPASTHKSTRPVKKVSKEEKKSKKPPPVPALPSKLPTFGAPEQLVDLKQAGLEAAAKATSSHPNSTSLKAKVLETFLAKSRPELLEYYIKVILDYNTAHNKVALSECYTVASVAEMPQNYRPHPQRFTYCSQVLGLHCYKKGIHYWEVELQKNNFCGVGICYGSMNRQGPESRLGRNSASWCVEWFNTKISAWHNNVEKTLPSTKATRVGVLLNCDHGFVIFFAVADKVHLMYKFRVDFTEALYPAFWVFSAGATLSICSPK
TRIM25 CCD-SPRY, sequence (Q14258 189-630): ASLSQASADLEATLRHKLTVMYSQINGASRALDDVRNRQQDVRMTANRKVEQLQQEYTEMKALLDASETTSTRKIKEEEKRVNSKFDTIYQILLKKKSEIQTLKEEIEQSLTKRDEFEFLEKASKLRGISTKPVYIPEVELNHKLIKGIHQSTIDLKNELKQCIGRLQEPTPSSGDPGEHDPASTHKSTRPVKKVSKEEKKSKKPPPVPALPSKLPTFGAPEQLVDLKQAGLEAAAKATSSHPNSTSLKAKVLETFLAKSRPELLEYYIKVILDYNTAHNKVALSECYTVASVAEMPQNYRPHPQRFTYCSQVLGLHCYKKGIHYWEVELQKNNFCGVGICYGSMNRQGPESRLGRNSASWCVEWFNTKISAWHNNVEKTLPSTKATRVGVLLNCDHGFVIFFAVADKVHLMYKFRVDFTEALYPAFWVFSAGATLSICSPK

B1: 28-bp dsRNA, fluorescent (dsRNA)
RNA 1: AUGGCUAGCUGGAGCCACCCGCAGUUCG
RNA 2: CGAACUGCGGGUGGCUCCAGCUAGCCAU
TRIM25 7K peptide
  binding result: no binding
TRIM25 WT [1]
  Kd: 260 ± 30 nM
TRIM25 SPRY
  Kd: 3470 ± 1170 nM
TRIM25 CCD-SPRY
  Kd: 110 ± 20 nM
TRIM25 ΔSPRY (RBCC)
  binding result: no binding
TRIM25 CCD+7K
  binding result: no binding
TRIM25 CCD
  binding result: no binding

B2: 56-bp dsRNA (dsRNA)
RNA 1: AUGGCUAGCUGGAGCCACCCGCAGUUCGUACAAGGAUGACGAUGACAAGGGUACAA
RNA 2: UUGUACCCUUGUCAUCGUCAUCCUUGUACGAACUGCGGGUGGCUCCAGCUAGCCAU
TRIM25 7KA mutant
  binding result: no binding
TRIM25 WT [2]
  binding result: binds

B3: Full-length TRIM25 7KA mutant, purified (enzyme, human, UniProt Q14258 1-630, looked up)
chain: MAELCPLAEELSCSICLEPFKEPVTTPCGHNFCGSCLNETWAVQGSPYLCPQCRAVYQARPQLHKNTVLCNVVEQFLQADLAREPPADVWTPPARASAPSPNAQVACDHCLKEAAVKTCLVCMASFCQEHLQPHFDSPAFQDHPLQPPVRDLLRRKCSQHNRLREFFCPEHSECICHICLVEHKTCSPASLSQASADLEATLRHKLTVMYSQINGASRALDDVRNRQQDVRMTANRKVEQLQQEYTEMKALLDASETTSTRKIKEEEKRVNSKFDTIYQILLKKKSEIQTLKEEIEQSLTKRDEFEFLEKASKLRGISTKPVYIPEVELNHKLIKGIHQSTIDLKNELKQCIGRLQEPTPSSGDPGEHDPASTHKSTRPVAAVSAEEAASAAPPPVPALPSKLPTFGAPEQLVDLKQAGLEAAAKATSSHPNSTSLKAKVLETFLAKSRPELLEYYIKVILDYNTAHNKVALSECYTVASVAEMPQNYRPHPQRFTYCSQVLGLHCYKKGIHYWEVELQKNNFCGVGICYGSMNRQGPESRLGRNSASWCVEWFNTKISAWHNNVEKTLPSTKATRVGVLLNCDHGFVIFFAVADKVHLMYKFRVDFTEALYPAFWVFSAGATLSICSPK
SEC-MALS
  binding result: binds
